According to patent US20240400717A1, “Antibody Binding to CHI3L1 for Treating Cancer” (National Cheng Kung University, priority 2021, published 2024):
Values belong to the molecule of their own block, whether it stands above or below them.

Experiments:
[1] = biological target: T1, CHI3L1 binding to IL-13Rα2 on A549 cell line (Homo sapiens, UniProt P36222); experiment: Functional screen: block of CHI3L1 binding to IL-13Rα2 on A549 cell line; assay type: cell-based; conditions: A549 cells, compared with CHI3L1 only
T1 construct: host or cells: A549 cells carry the receptor
Excerpt: CHI3L1 is known to associate with different receptors, such as IL-13Rα2 (He et al. 2013), CRTH2 (Zhou et al. 2015), TMEM219 (Lee et al. 2016), and galectin-3 (Zhou et al. 2015). […] Therefore, purified antibody leads were functionally screened for their ability to block CHI3L1 binding to IL-13Rα2 on A549 cell line (FIG. 3A). […] The sequences and defied CDR regions among those monoclonal antibodies are listed and summarized in the sequences list (SEQ ID NOs: 1 to 88) and Table 2, respectively. Anti-CHI3L1 clone R4-2 heavy chain (SEQ ID NO: 1), anti-CHI3L1 clone R4-2 light chain (SEQ ID NO: 2), anti-CHI3L1 clone R4-4 heavy chain (SEQ ID NO: 9), anti-CHI3L1 clone R4-4 light chain (SEQ ID NO: 10), anti-CHI3L1 clone R4-39 heavy chain (SEQ ID NO: 17), anti-CHI3L1 clone R4-39 light chain (SEQ ID NO: 18), anti-CHI3L1 clone R4-53 heavy chain (SEQ ID NO: 25), anti-CHI3L1 clone R4-53 light chain (SEQ ID NO: 26), anti-CHI3L1 clone R4-54 heavy chain (SEQ ID NO: 33), anti-CHI3L1 clone R4-54 light chain (SEQ ID NO: 34), anti-CHI3L1 clone R4-62 heavy chain (SEQ ID NO: 41), anti-CHI3L1 clone R4-62 light chain (SEQ ID NO: 42), anti-CHI3L1 clone R4-63 heavy chain (SEQ ID NO: 49), anti-CHI3L1 clone R4-63 light chain (SEQ ID NO: 50), anti-CHI3L1 clone R4-93 heavy chain (SEQ ID NO: 57), anti-CHI3L1 clone R4-93 light chain (SEQ ID NO: 58), anti-CHI3L1 clone 293R3-2 heavy chain (SEQ ID NO: 65), anti-CHI3L1 clone 293R3-2 light chain (SEQ ID NO: 66), anti-CHI3L1 clone 293R3-4 heavy chain (SEQ ID NO: 73), anti-CHI3L1 clone 293R3-4 light chain (SEQ ID NO: 74), anti-CHI3L1 clone 293R3-5 heavy chain (SEQ ID NO: 81), and anti-CHI3L1 clone 293R3-5 light chain (SEQ ID NO: 82) are shown in sequence listing.

SW480 and SW620 cells = experiment: rCHI3L1-induced foci formation; assay type: cell-based, human
[2] = biological target: recombinant CHI3L1 protein (Homo sapiens, UniProt P36222); experiment: ELISA binding specificity, CHI3L1; conditions: mAbs 1 μg/ml; coated protein 2.5 μg/ml to 0 μg/ml
Description: (§1) Four selected clones of mAbs including R4-4, R4-54, 293R3-2, and 293R3-4 were further tested for blocking effect on human colorectal (HCT116, SW480, and SW620) and pancreatic cancer cell lines (PANC1 and MiaPaCa-2). […] P values were determined by one-way ANOVA. * P<0.05, ** P<0.01, *** P<0.001, **** P<0.0001. For binding specificity examination, we further coated different concentration of recombinant CHI3L1 protein, and two other major proteins in chitinase family including human chitotriosidase-1 (CHIT1) and CHI3L2 from 2.5 μg/ml to 0 μg/ml, on 96-well plate.

PANC1 and H460 cells = experiment: CCK-8 cell viability assay with rCHI3L1; assay type: cell-based, human; conditions: PANC1 and H460, rCHI3L1 with mAbs at two doses
Description: PI3K/AKT/mTOR signaling pathway is important in regulating cell proliferation, survival and migration (Xu et al. 2020). Therefore, we investigated the effect of four selected mAbs on cancer cell behaviors. Human pancreatic (PANC1) and large cell cancer of the lung (H460) cells were treated with rCHI3L1 only or together with mAbs at two doses, and then subjected to cell counting kit 8 (CCK-8) cell viability assay. […] P values were determined by one-way ANOVA. * P<0.05, ** P<0.01, *** P<0.001, **** P<0.0001.

CHI3L2 = biological target: T2, CHI3L2 (Homo sapiens, UniProt Q15782); experiment: ELISA binding specificity, CHI3L2; conditions: mAbs 1 μg/ml; coated protein 2.5 μg/ml to 0 μg/ml
T2 sequence (Q15782 27-390): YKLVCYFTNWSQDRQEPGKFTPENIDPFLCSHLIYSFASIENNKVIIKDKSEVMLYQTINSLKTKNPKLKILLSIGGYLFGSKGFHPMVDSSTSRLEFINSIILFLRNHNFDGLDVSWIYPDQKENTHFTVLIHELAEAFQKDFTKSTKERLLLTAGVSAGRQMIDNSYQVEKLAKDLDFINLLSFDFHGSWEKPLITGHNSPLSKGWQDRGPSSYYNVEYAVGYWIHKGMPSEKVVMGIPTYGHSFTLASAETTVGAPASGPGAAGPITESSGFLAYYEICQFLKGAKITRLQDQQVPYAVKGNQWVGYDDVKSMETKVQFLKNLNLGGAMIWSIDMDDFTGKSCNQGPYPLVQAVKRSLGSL
Description: as §1

PANC1 cells = experiment: Immunoblot of rCHI3L1-induced AKT and ERK phosphorylation, PANC1; assay type: cell-based, human; conditions: PANC1, rCHI3L1 100 ng/ml, 20 minutes, different dose of mAbs
Description: The involvement of CHI3L1 in intracellular signaling pathways has been reported. For example, CHI3L1 binding to CD44 activates protein kinase B (AKT) and extracellular signal-regulated kinase (ERK) signaling to promote cancer progression (Chen, Jiang et al. 2021). Thus, we tested whether mAb clones R4-4, R4-54, 293R3-2, and 293R3-4 could attenuate AKT and ERK phosphorylation in human pancreatic (PANC1), colorectal (HCT116), and lung (A549) cancer cell lines. PANC1 cells were treated with rCHI3L1 (100 ng/ml) only or rCHI3L1 with different dose of mAbs as indicated for 20 minutes.

MiaPaCa cells = experiment: MiaPaCa orthotopic NOD-SCID mice model; conditions: for level of CHI3L1 in intratumoral region and plasma: end of experiment; for infiltrated macrophages in tumor sections (F4/80+, CD206+): immunofluorescence; for angiogenesis indicated by CD31 expression / tumor size: mAb 5 mg/kg i.v., gemcitabine 50 mg/kg i.p.; for tumor size: Day 7, 14, 21, 28, sacrificed day 34
Description: Specifically, experimental design of tumor growth inhibition in vivo. MiaPaCa cells (5×10^6) were injected into pancreas of NOD-SCID mice at Day 0. […] Mice were sacrificed on day 34. […] Since fibrosis and angiogenesis are two major issues during tumor progression, we compared the fibrosis and angiogenesis level within each groups.

[3] = biological target: human chitotriosidase-1 (CHIT1) (Homo sapiens, UniProt Q13231); experiment: ELISA binding specificity, CHIT1; conditions: mAbs 1 μg/ml; coated protein 2.5 μg/ml to 0 μg/ml
Description: as §1

Sequence of recombinant CHI3L1 protein (P36222 22-383): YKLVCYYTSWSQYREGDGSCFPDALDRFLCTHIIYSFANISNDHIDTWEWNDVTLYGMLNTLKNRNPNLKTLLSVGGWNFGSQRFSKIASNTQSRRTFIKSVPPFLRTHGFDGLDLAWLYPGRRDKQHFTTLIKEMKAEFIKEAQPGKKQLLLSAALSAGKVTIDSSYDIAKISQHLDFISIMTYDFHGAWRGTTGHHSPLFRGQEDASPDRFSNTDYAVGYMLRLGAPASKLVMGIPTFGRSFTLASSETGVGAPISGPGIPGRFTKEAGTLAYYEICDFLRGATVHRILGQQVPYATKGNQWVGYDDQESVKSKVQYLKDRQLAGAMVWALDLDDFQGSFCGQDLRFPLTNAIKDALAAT
Sequence of human chitotriosidase-1 (CHIT1) (Q13231 22-466): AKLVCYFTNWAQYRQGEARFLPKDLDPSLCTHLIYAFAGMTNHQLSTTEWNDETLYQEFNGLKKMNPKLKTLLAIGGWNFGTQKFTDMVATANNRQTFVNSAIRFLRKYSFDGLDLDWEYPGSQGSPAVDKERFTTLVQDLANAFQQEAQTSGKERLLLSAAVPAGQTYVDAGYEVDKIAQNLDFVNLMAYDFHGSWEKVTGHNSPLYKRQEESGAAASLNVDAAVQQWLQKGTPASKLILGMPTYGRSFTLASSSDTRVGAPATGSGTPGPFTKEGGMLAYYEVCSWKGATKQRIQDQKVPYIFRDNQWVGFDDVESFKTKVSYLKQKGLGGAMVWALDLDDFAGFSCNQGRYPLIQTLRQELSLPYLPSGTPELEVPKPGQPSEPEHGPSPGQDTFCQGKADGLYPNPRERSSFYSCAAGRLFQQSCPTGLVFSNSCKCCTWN
T1 sequence (P36222 22-383): as the sequence (P36222 22-383) above

- CHI3L1 neutralizing activity [1]: best neutralizing activity
- binding specificity: recognition of CHI3L1 [2]: specifically recognized CHI3L1
- binding specificity: recognition of CHI3L2 (CHI3L2): no other chitinase proteins
- binding specificity: recognition of CHIT1 [3]: no other chitinase proteins
B1: 293R3-2: fully human anti-CHI3L1 IgG1 mAb, Table 1 No. 2; heavy chain SEQ ID NO: 65, light chain SEQ ID NO: 66 (antibody, listed as Homo sapiens)
VH: QVQLQESGPGLVEPSGTLSLTCAVSGGSISSSNWWSWVRQHPGKGLEWIGEIYHSGSTNYNPSLRSRVTISVDKSKNQFSLELSSVTAADTAVYYCAGDQRMEDDAFDIWGQGTMVTVSS
light: QSALTQPASVSGSPGQSITISCTGTSSDVGGYNYVSWYQQHPGKAPKLMIYDVSNRPSGVSNRFSGSKSGNTASLTISGLQAEDEADYYCSSYTSSSTLYVFGTGTKVTVLGQPKANPTVTLFPPSSEELQANKATLVCLISDFYPGAVTVAWKADGSPVKAGVETTKPSKQSNNKYAASSYLSLTPEQWKSHRSYSCQVTHEGSTVEKTVAPTECS
- number of foci (SW480 and SW620 cells): decreased in a dose-dependent manner
- cell viability (CCK-8) (PANC1 and H460 cells): reduced the viability
- p-AKT and p-ERK levels induced by rCHI3L1 (PANC1 cells): inhibited p-AKT and p-ERK levels induced by rCHI3L1 in a dose dependent manner
- level of CHI3L1 in intratumoral region and plasma (MiaPaCa cells): lower than IgG control group
- infiltrated macrophages in tumor sections (F4/80+, CD206+) (MiaPaCa cells; 5 mg/kg i.v.): more macrophages other than M2 phenotype
- angiogenesis indicated by CD31 expression (MiaPaCa cells): decreased in every treatment groups
- tumor size (MiaPaCa cells): smaller than IgG control group

- binding specificity: recognition of CHI3L1 [2]: specifically recognized CHI3L1
- binding specificity: recognition of CHI3L2 (CHI3L2): no other chitinase proteins
- binding specificity: recognition of CHIT1 [3]: no other chitinase proteins
B2: R4-4: fully human anti-CHI3L1 IgG1 mAb, Table 1 No. 9; heavy chain SEQ ID NO: 9, light chain SEQ ID NO: 10 (antibody, listed as Homo sapiens)
VH: EVQLLESGGGLLQPGGSLRLSCAASGLTFRNYAMTWVRQAPGKGLEWVSTISGNGDETFYADSVKGHFTISRDNSKDTVYLQMNSLRAEDTAVYYCAKGGHYSFFDSWGQGSPVTVSS
light: NFMLTQPHSVSESPGKTVTISCTRSSGSIASNYVQWYQQRPGSSPTTVIYEDNQRPSGVPDRFSGSIDSSSNSASLTISGLKTEDEADYYCQSYDSSNYVFGTGTKVTVLGQPKANPTVTLFPPSSEELQANKATLVCLISDFYPGAVTVAWKADGSPVKAGVETTKPSKQSNNKYAASSYLSLTPEQWKSHRSYSCQVTHEGSTVEKTVAPAECS
- number of foci (SW480 and SW620 cells): decreased in a dose-dependent manner
- cell viability (CCK-8) (PANC1 and H460 cells): reduced the viability
- p-AKT and p-ERK levels induced by rCHI3L1 (PANC1 cells): inhibited p-AKT and p-ERK levels induced by rCHI3L1 in a dose dependent manner
- spleen metastasis tumor nodules (MiaPaCa cells; 5 mg/kg i.v.): tumor nodules were obviously smaller
- fibrosis indicated by α-SMA (MiaPaCa cells; comparing to IgG control and gemcitabine groups): obviously decrease
- level of CHI3L1 in intratumoral region and plasma (MiaPaCa cells): lower than IgG control group
- infiltrated macrophages in tumor sections (F4/80+, CD206+) (MiaPaCa cells; 5 mg/kg i.v.): more macrophages other than M2 phenotype
- angiogenesis indicated by CD31 expression (MiaPaCa cells): decreased in every treatment groups
- tumor size (MiaPaCa cells): smaller than IgG control group

- CHI3L1 neutralizing activity [1]: best neutralizing activity
- binding specificity: recognition of CHI3L1 [2]: specifically recognized CHI3L1
- binding specificity: recognition of CHI3L2 (CHI3L2): no other chitinase proteins
- binding specificity: recognition of CHIT1 [3]: no other chitinase proteins
B3: 293R3-4: fully human anti-CHI3L1 IgG1 mAb, Table 1 No. 4; heavy chain SEQ ID NO: 73, light chain SEQ ID NO: 74 (antibody, listed as Homo sapiens)
VH: EVQLVQSGAEVKKPGATVKISCKVSGYSFTDYYIHWVQQAPGKGLEWMGFVDPENGETIYAEKFQGRVTITADTSTDTAYMELSSLRSDDTAVYYCATDRDYDDSSGNAFDIWGQGTMVTVSS
light: SYELTQPPSVSVSTGQTATITCSGDILGDEYAFWYQQKAGQSPVLVIYLDTRRPSGIPERFSGSNSGDTATLTISETQPVDEAVYFCQGWDSSTALYVFGTGTKVTVLGQPKANPTVTLFPPSSEELQANKATLVCLISDFYPGAVTVAWKADGSPVKAGVETTKPSKQSNNKYAASSYLSLTPEQWKSHRSYSCQVTHEGSTVEKTVAPTECS
- number of foci (SW480 and SW620 cells): decreased in a dose-dependent manner
- cell viability (CCK-8) (PANC1 and H460 cells): reduced the viability
- p-AKT and p-ERK levels induced by rCHI3L1 (PANC1 cells): inhibited p-AKT and p-ERK levels induced by rCHI3L1 in a dose dependent manner
- level of CHI3L1 in intratumoral region and plasma (MiaPaCa cells): lower than IgG control group
- infiltrated macrophages in tumor sections (F4/80+, CD206+) (MiaPaCa cells; 5 mg/kg i.v.): more macrophages other than M2 phenotype
- angiogenesis indicated by CD31 expression (MiaPaCa cells): decreased in every treatment groups
- tumor size (MiaPaCa cells): smaller than IgG control group
